Reference: article PMC12630593

What was measured:
Experiment in all cases: EMSA
NFI-X193 R121P = NFI-X193 R121P (mouse, UniProt P70257 14-193, R121P)
NFI-X193 R115W = NFI-X193 R115W (mouse, UniProt P70257 14-193, R115W)
NFI-X193 R116P = NFI-X193 R116P (mouse, UniProt P70257 14-193, R116P)
NFI-X193 R116Q = NFI-X193 R116Q (mouse, UniProt P70257 14-193, R116Q)
NFI-X193 K125E = NFI-X193 K125E (mouse, UniProt P70257 14-193, K125E)
NFI-X193 K113E = NFI-X193 K113E (mouse, UniProt P70257 14-193, K113E)
NFI-X193 (NFI-X DBD) = NFI-X193 (NFI-X DBD) (mouse, UniProt P70257 14-193)

B1: NFI-31bp Cy5 probe (dsDNA)
DNA 1: GGGTCTCTTTGGCAGGCAGCCAACCAGCAAA
DNA 2: TTTGCTGGTTGGCTGCCTGCCAAAGAGACCC
Question: Does B1 bind (NFI-X193 R121P)?
Answer: binds

Question: Does B1 bind (NFI-X193 R115W)?
Answer: no binding

Question: Does B1 bind (NFI-X193 R116P)?
Answer: no binding

Question: Does B1 bind (NFI-X193 R116Q)?
Answer: no binding

Question: Does B1 bind (NFI-X193 K125E)?
Answer: no binding

Question: Does B1 bind (NFI-X193 K113E)?
Answer: no binding

Question: What about the Kd (NFI-X193 (NFI-X DBD)) of the same binder?
Answer: 0.0481 ± 0.00049 µM
